Data: publication PMC7539366 (Cell host & microbe, 2020)

B1: Mouse Monoclonal Antibody-14B10 (antibody, V domains shown)
VH: QVQLQQSGPELVKPGASVKISCKASGYEFSRSWMNWVKQRPGQGLEWIGRIYPGDGDTNYNGKFRDKATLTADKSSSTAYMQLSRLTSVDSAVYFCARRRGYFDVWGAGTTVTVS
VL: DIQMTQSSSYLSVSLGGRVTITCKASDHINNWLAWYQQKPGNAPRLLISGATSLETGIPSRFSGSGSGKDYTLSITSLQTEDVGTYYCQQYWSTPTFGGGTKLEIK
B2: 14B10 Fab fragment (Fab, V domains shown)
VH: B1 VH
VL: B1 VL
B3: Mouse Monoclonal Antibody-NA9D7 (antibody, V domains shown)
VH: EVQLQQSGPELVKPGASVKMSCKASGYTFTDYYMKWVKQSHGKSLEWIGDINPNNGATSYNQKFKGKATLTVDKSSSTAYMQLNSLTSEDSAVYYCARRGYGLYYAMDYWGQGTSVTVSS
VL: EIVLTQSPTTMAASPGEKITITCSASSSISSNYLHWYQQKPGFSPKLLIYRTSNLASGVPARFSGSGSGTSYSLTIGTMEAEDVATYYCQQGSSIPHTFGGGTKLEIK
B4: NA9D7 Fab fragment (Fab, V domains shown)
VH: B3 VH
VL: B3 VL
B5: Mouse Monoclonal Antibody-18A7 (antibody, V domains shown)
VH: EVQLQQSGPELVKPGASVKMSCKASGYTFTDYYMKWVKQSHGKSLEWIGDINPYNGDSFNNQKFKGKATLTVDTSSSTAYMQLNSLTSEDSAVYYCAIPYDYDEGWFAYWGQGTLVTVSA
VL: DIVMSQSPSSLAVSVGEKVTMSCKSSQSLLYSNNQKNYLAWYQQKPGQSPQLLIYWASTRESGVPDRFTGSESGTDFTLTISSVKAEDLAVFYCQQYYNYPWTFGGGTKLEIK
B6: 18A7 Fab fragment (Fab, V domains shown)
VH: B5 VH
VL: B5 VL

What was measured:
[1] = molecular target: T1, CVA16 empty particle (strain CVA16/190) (Coxsackievirus A16, strain CVA16/190 …, strain); assay: ELISA
T1 chain 1: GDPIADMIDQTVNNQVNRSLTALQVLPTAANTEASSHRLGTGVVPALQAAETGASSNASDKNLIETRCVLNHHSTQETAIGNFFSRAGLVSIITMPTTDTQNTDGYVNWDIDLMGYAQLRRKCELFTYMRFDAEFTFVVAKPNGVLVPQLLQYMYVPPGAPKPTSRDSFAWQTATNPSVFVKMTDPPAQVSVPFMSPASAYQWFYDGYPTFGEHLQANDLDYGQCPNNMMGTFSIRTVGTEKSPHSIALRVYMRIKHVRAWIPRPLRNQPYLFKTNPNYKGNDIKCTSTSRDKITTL
T1 chain 2: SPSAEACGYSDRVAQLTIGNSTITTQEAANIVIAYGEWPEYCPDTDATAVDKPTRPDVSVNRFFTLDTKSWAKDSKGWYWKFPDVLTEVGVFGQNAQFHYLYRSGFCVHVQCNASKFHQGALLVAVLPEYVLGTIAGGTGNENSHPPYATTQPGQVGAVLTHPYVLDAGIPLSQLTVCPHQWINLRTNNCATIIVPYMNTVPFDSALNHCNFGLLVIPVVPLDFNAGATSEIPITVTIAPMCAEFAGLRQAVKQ
T1 chain 3: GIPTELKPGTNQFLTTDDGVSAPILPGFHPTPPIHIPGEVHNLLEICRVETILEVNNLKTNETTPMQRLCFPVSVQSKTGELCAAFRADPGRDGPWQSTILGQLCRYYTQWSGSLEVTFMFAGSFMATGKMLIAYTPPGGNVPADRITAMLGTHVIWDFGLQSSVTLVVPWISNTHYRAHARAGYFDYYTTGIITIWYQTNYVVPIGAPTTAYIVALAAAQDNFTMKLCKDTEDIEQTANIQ

[2] = molecular target: CVA16 mature virion (strain CVA16/190) (coxsackievirus A16 (strain CVA16/190))
[3] = molecular target: T2, CVA16 mature virion (strain CVA16/190) (Coxsackievirus A16, strain CVA16/190 …, strain); assay: cryo-EM structure
T2 chain 1: T1 chain 1
T2 chain 2: T1 chain 2
T2 chain 3: T1 chain 3
T2 chain 4: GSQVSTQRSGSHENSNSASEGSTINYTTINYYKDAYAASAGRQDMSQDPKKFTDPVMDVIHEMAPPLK

[4] = molecular target: T1, CVA16 empty particle (strain CVA16/190); assay: cryo-EM structure
[5] = molecular target: T3, CVA16 A-particle (strain CVA16/190) (Coxsackievirus A16, strain CVA16/190 …, strain); assay: cryo-EM structure
T3 chain 1: T1 chain 1
T3 chain 2: T1 chain 2
T3 chain 3: T1 chain 3

| Binder | binding result [1] | IC50 of neutralisation of CVA16/190 in RD cells (micro-neutralization, Elispot) [2] [µg/mL] | stoichiometry N [3] [Fabs per mature virion] | other results |
| --- | --- | --- | --- | --- |
| B1 | no binding | 1.01 |  |  |
| B2 |  |  | ≤ 60 |  |
| B3 | no binding | 1.96 |  |  |
| B4 |  |  | ≤ 60 |  |
| B5 |  | 0.04 |  |  |
| B6 |  |  |  | stoichiometry N [4]: 12 Fabs per viral particle; stoichiometry N [5]: 12 Fabs per viral particle |
